Numbering of substitutions follows the chain as printed.
T1: human MAdCAM (human, UniProt Q13477 19-317, limits assumed)
T1 construct: also called huMAdCAM; human MAdCAM-1
T1 sequence (looked up): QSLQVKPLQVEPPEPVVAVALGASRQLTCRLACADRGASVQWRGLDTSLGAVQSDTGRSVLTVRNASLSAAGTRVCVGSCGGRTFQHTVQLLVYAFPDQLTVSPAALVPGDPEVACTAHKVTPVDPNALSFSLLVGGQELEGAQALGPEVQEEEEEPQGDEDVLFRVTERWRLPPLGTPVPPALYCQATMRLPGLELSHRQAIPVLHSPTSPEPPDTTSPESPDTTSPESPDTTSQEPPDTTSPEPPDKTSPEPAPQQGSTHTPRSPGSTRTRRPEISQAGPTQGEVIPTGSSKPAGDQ

T2: mouse MAdCAM (mouse, UniProt Q61826 22-365, limits assumed)
T2 construct: also called mouse MAdCAM-1; muMAdCAM
T2 sequence (looked up): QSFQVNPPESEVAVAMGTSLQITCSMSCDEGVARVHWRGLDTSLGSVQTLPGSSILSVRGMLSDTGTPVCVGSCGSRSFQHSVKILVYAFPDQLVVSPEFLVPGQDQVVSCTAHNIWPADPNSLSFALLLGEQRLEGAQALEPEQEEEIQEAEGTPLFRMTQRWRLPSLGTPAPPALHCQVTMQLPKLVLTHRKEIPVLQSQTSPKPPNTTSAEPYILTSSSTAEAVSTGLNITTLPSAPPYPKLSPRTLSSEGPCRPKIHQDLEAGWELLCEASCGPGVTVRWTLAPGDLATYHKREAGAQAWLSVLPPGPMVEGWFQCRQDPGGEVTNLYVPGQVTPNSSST

B1: MIAB133 (antibody, V domains shown)
VH: EVQLLESGGGLVQPGGSLRLSCAASGFTFSSFWMHWVRQAPGKGLEWISYISGDSGYTNYADSVKGRFTISRDNSKNTLYLQMNSLRAEDTAVYYCARDRPYYYYMDVWGKGTTVTVSS
VL: DIQMTQSPSSLSASVGDRVTITCRASQSVSRSLAWYQQKPGKAPKLLIYAASSLQSGVPSRFSGSGSGTDFTLTISSLQPEDFATYYCQQYKSYPVTFGQGTKVEIK
notes: tested with human Fc; also called MIAB133-001
B2: MIAB153 (antibody, V domains shown)
VH: B1 VH with S31D
VL: B1 VL with R31S, A34N
notes: tested with human Fc
B3: MIAB170 (antibody, V domains shown)
VH: B1 VH with S31D, Y105W
VL: B1 VL
notes: tested with human Fc
B4: MIAB147 (antibody, V domains shown)
VH: B1 VH with S31D
VL: B1 VL with S32Y
notes: tested with human Fc; also called MIAB147-001
B5: MIAB146 (antibody, V domains shown)
VH: B1 VH with S31D
VL: B1 VL with R31S
notes: tested with human Fc; also called MIAB146-001
B6: MIAB151 (antibody, V domains shown)
VH: B1 VH with S31D
VL: B1 VL with V29I, A34N
notes: tested with human Fc
B7: MIAB145 (antibody, V domains shown)
VH: B1 VH with S31D
VL: B1 VL with V29I
notes: tested with human Fc; also called MIAB145-001
B8: MIAB148 (antibody, V domains shown)
VH: B1 VH with S31D
VL: B1 VL with A34N
notes: tested with human Fc
B9: MIAB149 (antibody, V domains shown)
VH: B1 VH with S31D
VL: B1 VL with V29I, R31S
notes: tested with human Fc; also called MIAB149-001
B10: MIAB137 (antibody, V domains shown)
VH: B1 VH with S31D, I48V, Y50A, D54S, S55G, Y57S, N59Y
VL: B1 VL
notes: tested with human Fc
B11: MIAB136 (antibody, V domains shown)
VH: B1 VH with F32Y, W33A, H35S
VL: B1 VL
notes: tested with human Fc
B12: MIAB1 (antibody, V domains shown)
VH: EVQLLESGGGLVQPGGSLRLSCAASGFTFDDYAMHWVRQAPGKGLEWVASITSSSAFIDYADSVKGRFTISRDNSKNTLYLQMNSLRAEDTAVYYCAREPVDWNSYFDLWGQGTLVTVSS
VL: EIVMTQSPATLSVSPGERATLSCRASQGISNSYLAWYQQKPGQAPRLLIYGASTRATGIPARFSGSGSGTEFTLTISSLQSEDFAVYYCQQYYTYPPTFGQGTKVEIK
notes: tested with human Fc
B13: MIAB208 (antibody, V domains shown)
VH: B12 VH with P100R
VL: EIVMTQSPATLSVSPGERATLSCRASQSVYSNLAWYQQKPGQAPRLLIYDASTRATGIPARFSGSGSGTEFTLTISSLQSEDFAVYYCQQYHIWPPTFGQGTKVEIK
notes: tested with human Fc
B14: MIAB25 (antibody, V domains shown)
VH: B12 VH with T28I, P100R, N104F
VL: B13 VL with Y30S, S31N, A34V, H92S, I93H
notes: tested with human Fc
B15: MIAB2 (antibody, V domains shown)
VH: B12 VH with P100R
VL: B12 VL
notes: tested with human Fc
B16: MIAB13 (antibody, V domains shown)
VH: B12 VH with P100R, D102L
VL: B13 VL with S28N, Y30N, S31N, S52T, H92Y, I93H, P96Q
notes: tested with human Fc
B17: MIAB12 (antibody, V domains shown)
VH: B12 VH with P100R
VL: B12 VL with S26C, Q27P
notes: tested with human Fc
B18: MIAB123 (antibody, V domains shown)
VH: B12 VH with T28I, P100R, N104F
VL: B12 VL with G28S, I29V, S32N, A35V, G51D, Y93S, T94H, Y95W
notes: tested with human Fc
B19: MIAB122 (antibody, V domains shown)
VH: B12 VH with T28I, P100R, N104F
VL: B12 VL with S26C, Q27P, G28S, I29V, S32N, A35V, G51D, Y93S, T94H, Y95W
notes: tested with human Fc
B20: MIAB206 (antibody, V domains shown)
VH: B12 VH with P100R, N104Y
VL: B13 VL with D50R
notes: tested with human Fc
B21: MIAB209 (antibody, V domains shown)
VH: B12 VH with P100R
VL: B12 VL with G28S, I29V, S30Y, N31S, S32N, G51R, Y93S, T94H, Y95W
notes: tested with human Fc
B22: MIAB121 (antibody, V domains shown)
VH: B12 VH with T28I, P100R, N104F
VL: B13 VL with S26C, Q27P, Y30S, S31N, A34V, H92S, I93H
notes: tested with human Fc
B23: MIAB205 (antibody, V domains shown)
VH: B12 VH with P100R, N104F
VL: B13 VL with D50R
notes: tested with human Fc
B24: MIAB207 (antibody, V domains shown)
VH: B12 VH with P100R
VL: B13 VL with A34V, D50R
notes: tested with human Fc
B25: MIAB26 (antibody, V domains shown)
VH: B12 VH with P100R
VL: B13 VL with D50R
notes: tested with human Fc

Key:
human MAdCAM = molecular target: T1, human MAdCAM; assay: BLI (Octet), binder on anti-human Fc tips
Insulin = assay: polyreactivity ELISA on insulin coat, 100 nM
Chain of Insulin (P01308 25-54, chain 1 of 2): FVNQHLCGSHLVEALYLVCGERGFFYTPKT
Chain of Insulin (P01308 90-110, chain 2 of 2): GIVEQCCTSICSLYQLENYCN
Procedure: Non-specific DNA and Insulin binding is predictive of poor pharmacokinetics (PK). An immunosorbent plate was coated with dsDNA at a concentration of 1 μg/mL or Insulin at 5 μg/mL in PBS pH 7.4, 75 ul/well, and incubated overnight at 4° C. Wells were washed with PBS pH 7.4 containing 0.05% Tween-20 (wash buffer) three times, and then blocked with 200 ul/well 1% BSA in PBS pH 7.4 (block buffer) for two hours at room temperature. After three washes with wash buffer, TAs and controls Lenzilumab and Elotuzumab were diluted to 100 nM in PBS containing 1% BSA and 0.05% Tween-20 (assay buffer). The diluted material was added to the DNA/insulin coated plate at 75 ul/well for 1 hour at room temperature. After three washes with wash buffer, a donkey anti-human FcY HRP conjugated polyclonal antibody, diluted to 1:5000 in assay buffer, was added to the plate at 75 ul/well for 1 hr at room temperature. After three washes with wash buffer and three washes with wash buffer (with no tween-20), the assay was developed with TMB, and stopped with 1N HCL. OD 450 nm was measured. The experiment included appropriate controls for non-specific binding of test articles to the plate/block in the absence of DNA or insulin.

mouse MAdCAM = molecular target: T2, mouse MAdCAM; assay: BLI (Octet), binder on anti-human Fc tips
cyno MAdCAM = molecular target: T3, cyno MAdCAM (cynomolgus); assay: BLI (Octet), binder on anti-human Fc tips
T3 construct: also called cynomolgus MAdCAM

Binder	Kd (human MAdCAM) [nM]	koff (human MAdCAM) [s⁻¹]	Insulin polyreactivity score (Insulin)	kon (human MAdCAM) [M⁻¹ s⁻¹]	binding result (human MAdCAM)	Kd (mouse MAdCAM) [nM]	Kd (cyno MAdCAM) [nM]
B1	20	0.0113	13.2				
B2	8360	0.543	2.46	64800			
B3			4.73		no binding (tested: 1 µM)		
B4			3.81		no binding (tested: 200 nM)		
B5	43.8	0.0197	2.61	449000			
B6	2960	0.292	3.63	98700			
B7	22.2	0.00897	4.58	405000			
B8	2690	0.314	3.63	117000			
B9	68.8	0.0259	3.53	376000			
B10	203	0.082	67.3	404000			
B11			75.4		no binding (tested: 150 nM)		
B12	38.4					184	26.5
B13	20.2					75.1	142
B14	46.9					131	60.8
B15	23.2					147	18.8
B16	45.9					6.6	33.4
B17	19.3					77.5	19.5
B18	39.7					164	77.9
B19	48.2					130	68.5
B20	74.3					7.6	89.5
B21	61.1					35.2	99
B22	50.4					117	92
B23	56.3					42.2	117
B24	83.5					24	73.7
B25	49.1					9.9	78.5
